Reference: the supplement of paper PMC9112550, “Optimization of the antimicrobial peptide Bac7 by deep mutational scanning” (BMC Biology, 2022)

System: Escherichia coli TOP10
Test: shrunken log2 fold change of peptide-encoding DNA abundance (4.5 h post-induction vs induction); higher = less antimicrobial activity (less host growth inhibition)
Settings: time post-induction: 4.5 h; library: site-saturation at positions 5, 18, 19, 20
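Note: peptides expressed intracellularly from a pBAD plasmid library in pooled LB shake-flask culture, induced with 0.3% L-arabinose, DNA abundance read by NGS, three biological replicates, DESeq2 with apeglm shrinkage.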

Sequence | shrunken log2 fold change
RRIRARPPRLPRPRPRPPFPPRP | 0.625
RRIRARPPRLPRPRPRPPGCPRP | 0.746
RRIRARPPRLPRPRPRPPGKPRP | 0.188
RRIRARPPRLPRPRPRPPHGPRP | 0.788
RRIRARPPRLPRPRPRPPHYPRP | 0.857
RRIRARPPRLPRPRPRPPMHPRP | 0.51
RRIRARPPRLPRPRPRPPNAPRP | 0.825
RRIRARPPRLPRPRPRPPQDPRP | 1.13
RRIRARPPRLPRPRPRPPQYPRP | 0.33
RRIRARPPRLPRPRPRPPSGPRP | 0.597
RRIRARPPRLPRPRPRPPVDPRP | 0.545
RRIRARPPRLPRPRPRPPVQPRP | 0.227
RRIRARPPRLPRPRPRPPWIPRP | 0.38
RRIRARPPRLPRPRPRPPYPPRP | 0.256
RRIRARPPRLPRPRPRPQAQPRP | 0.664
RRIRARPPRLPRPRPRPQDAPRP | 0.215
RRIRARPPRLPRPRPRPQDIPRP | -0.15
RRIRARPPRLPRPRPRPQEFPRP | -0.0568
RRIRARPPRLPRPRPRPQFGPRP | -0.217
RRIRARPPRLPRPRPRPQFHPRP | -0.116
RRIRARPPRLPRPRPRPQFMPRP | 0.546
RRIRARPPRLPRPRPRPQGYPRP | 0.119
RRIRARPPRLPRPRPRPQHGPRP | -0.265
RRIRARPPRLPRPRPRPQHNPRP | -0.26
RRIRARPPRLPRPRPRPQIDPRP | 0.427

Sequence | shrunken log2 fold change
RRIRARPPRLPRPRPRPQINPRP | -0.0458
RRIRARPPRLPRPRPRPQIYPRP | -0.354
RRIRARPPRLPRPRPRPQKDPRP | 0.0524
RRIRARPPRLPRPRPRPQMLPRP | 1.97
RRIRARPPRLPRPRPRPQMVPRP | -0.0332
RRIRARPPRLPRPRPRPQNLPRP | -0.564
RRIRARPPRLPRPRPRPQNVPRP | -0.035
RRIRARPPRLPRPRPRPQPKPRP | 0.465
RRIRARPPRLPRPRPRPQPTPRP | 0.781
RRIRARPPRLPRPRPRPQQCPRP | 0.132
RRIRARPPRLPRPRPRPQQKPRP | 0.153
RRIRARPPRLPRPRPRPQQTPRP | 0.141
RRIRARPPRLPRPRPRPQRCPRP | 0.256
RRIRARPPRLPRPRPRPQTMPRP | 0.108
RRIRARPPRLPRPRPRPQVDPRP | 0.04
RRIRARPPRLPRPRPRPQVIPRP | -0.109
RRIRARPPRLPRPRPRPQVRPRP | -0.0207
RRIRARPPRLPRPRPRPQWFPRP | 0.0925
RRIRARPPRLPRPRPRPQWSPRP | 0.245
RRIRARPPRLPRPRPRPQWWPRP | 0.464
RRIRARPPRLPRPRPRPQYSPRP | -0.0321
RRIRARPPRLPRPRPRPRAGPRP | 0.896
RRIRARPPRLPRPRPRPRCSPRP | 0.205
RRIRARPPRLPRPRPRPRDDPRP | 0.647
RRIRARPPRLPRPRPRPRDNPRP | 0.295

Sequence | shrunken log2 fold change
RRIRARPPRLPRPRPRPREQPRP | 0.825
RRIRARPPRLPRPRPRPRFNPRP | 0.269
RRIRARPPRLPRPRPRPRILPRP | 0.323
RRIRARPPRLPRPRPRPRIYPRP | -0.0488
RRIRARPPRLPRPRPRPRKCPRP | 0.154
RRIRARPPRLPRPRPRPRKQPRP | 0.301
RRIRARPPRLPRPRPRPRLDPRP | 0.291
RRIRARPPRLPRPRPRPRMIPRP | 0.219
RRIRARPPRLPRPRPRPRPKPRP | 0.916
RRIRARPPRLPRPRPRPRPWPRP | 0.499
RRIRARPPRLPRPRPRPRPYPRP | 0.375
RRIRARPPRLPRPRPRPRRHPRP | 1.65
RRIRARPPRLPRPRPRPRSCPRP | 0.306
RRIRARPPRLPRPRPRPRTGPRP | 0.387
RRIRARPPRLPRPRPRPRTRPRP | 1.05
RRIRARPPRLPRPRPRPRYTPRP | -0.0676
RRIRARPPRLPRPRPRPSCFPRP | 0.0871
RRIRARPPRLPRPRPRPSCPPRP | 0.131
RRIRARPPRLPRPRPRPSCWPRP | 0.628
RRIRARPPRLPRPRPRPSDHPRP | -0.134
RRIRARPPRLPRPRPRPSDWPRP | 0.402
RRIRARPPRLPRPRPRPSDYPRP | -0.108
RRIRARPPRLPRPRPRPSGEPRP | 0.65
RRIRARPPRLPRPRPRPSGSPRP | 0.216
RRIRARPPRLPRPRPRPSHPPRP | -0.0758

Sequence | shrunken log2 fold change
RRIRARPPRLPRPRPRPSHQPRP | -0.138
RRIRARPPRLPRPRPRPSILPRP | -0.156
RRIRARPPRLPRPRPRPSKSPRP | 0.0305
RRIRARPPRLPRPRPRPSLAPRP | 0.54
RRIRARPPRLPRPRPRPSLVPRP | 0.413
RRIRARPPRLPRPRPRPSMKPRP | -0.037
RRIRARPPRLPRPRPRPSMQPRP | 0.352
RRIRARPPRLPRPRPRPSNDPRP | -0.213
RRIRARPPRLPRPRPRPSNGPRP | -0.318
RRIRARPPRLPRPRPRPSPGPRP | 0.284
RRIRARPPRLPRPRPRPSPMPRP | 0.173
RRIRARPPRLPRPRPRPSPVPRP | 0.355
RRIRARPPRLPRPRPRPSPWPRP | 0.348
RRIRARPPRLPRPRPRPSTCPRP | 0.0421
RRIRARPPRLPRPRPRPSTFPRP | 0.435
RRIRARPPRLPRPRPRPSVDPRP | 0.125
RRIRARPPRLPRPRPRPSWMPRP | -0.131
RRIRARPPRLPRPRPRPSWNPRP | -0.19
RRIRARPPRLPRPRPRPSWQPRP | 0.223
RRIRARPPRLPRPRPRPSWVPRP | -0.174
RRIRARPPRLPRPRPRPTAGPRP | 0.902
RRIRARPPRLPRPRPRPTCGPRP | 0.512
RRIRARPPRLPRPRPRPTCHPRP | 0.427
RRIRARPPRLPRPRPRPTDYPRP | -0.0499
RRIRARPPRLPRPRPRPTEDPRP | 0.269

Sequence | shrunken log2 fold change
RRIRARPPRLPRPRPRPTELPRP | 0.595
RRIRARPPRLPRPRPRPTFKPRP | 0.341
RRIRARPPRLPRPRPRPTGCPRP | 0.458
RRIRARPPRLPRPRPRPTHAPRP | 0.528
RRIRARPPRLPRPRPRPTIHPRP | -0.0543
RRIRARPPRLPRPRPRPTIWPRP | 0.206
RRIRARPPRLPRPRPRPTLIPRP | 0.573
RRIRARPPRLPRPRPRPTNHPRP | -0.181
RRIRARPPRLPRPRPRPTPMPRP | 0.528
RRIRARPPRLPRPRPRPTPTPRP | 0.968
RRIRARPPRLPRPRPRPTPWPRP | 0.563
RRIRARPPRLPRPRPRPTPYPRP | -0.0244
RRIRARPPRLPRPRPRPTQLPRP | 0.611
RRIRARPPRLPRPRPRPTQRPRP | 0.915
RRIRARPPRLPRPRPRPTQTPRP | 0.69
RRIRARPPRLPRPRPRPTRGPRP | 0.301
RRIRARPPRLPRPRPRPTRIPRP | 2.82
RRIRARPPRLPRPRPRPTTAPRP | 0.514
RRIRARPPRLPRPRPRPTTDPRP | 0.745
RRIRARPPRLPRPRPRPTVQPRP | 0.549
RRIRARPPRLPRPRPRPTYQPRP | -0.163
RRIRARPPRLPRPRPRPVASPRP | 0.595
RRIRARPPRLPRPRPRPVCAPRP | 0.571
RRIRARPPRLPRPRPRPVCCPRP | 0.573
RRIRARPPRLPRPRPRPVCRPRP | 0.505

Sequence | shrunken log2 fold change
RRIRARPPRLPRPRPRPVDKPRP | 0.363
RRIRARPPRLPRPRPRPVFDPRP | 0.321
RRIRARPPRLPRPRPRPVHFPRP | 0.396
RRIRARPPRLPRPRPRPVIYPRP | -0.308
RRIRARPPRLPRPRPRPVKCPRP | 0.03
RRIRARPPRLPRPRPRPVKEPRP | -0.0493
RRIRARPPRLPRPRPRPVKNPRP | 0.384
RRIRARPPRLPRPRPRPVLQPRP | 1.09
RRIRARPPRLPRPRPRPVMHPRP | 0.191
RRIRARPPRLPRPRPRPVNQPRP | -0.0386
RRIRARPPRLPRPRPRPVPVPRP | 0.423
RRIRARPPRLPRPRPRPVSQPRP | 0.385
RRIRARPPRLPRPRPRPVTSPRP | 0.293
RRIRARPPRLPRPRPRPVTWPRP | 0.291
RRIRARPPRLPRPRPRPVYFPRP | -0.135
RRIRARPPRLPRPRPRPWAKPRP | 0.334
RRIRARPPRLPRPRPRPWAYPRP | -0.0297
RRIRARPPRLPRPRPRPWDMPRP | 0.187
RRIRARPPRLPRPRPRPWDQPRP | 0.353
RRIRARPPRLPRPRPRPWDTPRP | 0.0787
RRIRARPPRLPRPRPRPWDWPRP | 0.991
RRIRARPPRLPRPRPRPWEHPRP | -0.0255
RRIRARPPRLPRPRPRPWIIPRP | -0.0127
RRIRARPPRLPRPRPRPWIQPRP | -0.103
RRIRARPPRLPRPRPRPWKAPRP | -0.0198
